Source: patent US12440573B2, “Antibody-conjugates for targeting of tumours expressing PTK7” (Synaffix B.V., priority 2022, dated 2025)
Marks after values point to notes of the source that are not given here.

Legend:
[1] = test system: PTK7 expressing NCl—H446 tumor model; experiment: In vivo efficacy study, NCl—H446 xenograft, with Olaparib (Example 33); parameters: species or system BALB/c nude mice; conditions: ADC 2.5 mg/kg single IV dose; Olaparib 50 mg/kg orally QD×21 days
Experimental: (§1) NCl—H446, lung cancer xenograft model cell line was maintained in vitro using RPMI-1640 medium supplemented with 10% FBS in humidified cell culture incubator at 37° C. with standard 5% CO2 specs. The cells in an exponential growth phase were harvested and counted for tumor inoculation.
BALB/c nude mice (female) of 7-9 weeks old received a subcutaneous injection in the right front flank region with 5×10^6 tumor cells in 0.1 ml of PBS mixed with Matrigel (1:1) for tumor development. When tumors reached an average size of 100-200 mm^3, randomization was performed into 5 groups of 8 mice and treatment began. Randomization will be performed based on “Matched distribution” method (Study Director™ Software, version 3.1.399.19). The date of randomization will be denoted as day 0.
(§2) Electronic caliper measurement were performed 2 times a week. Daily observations for clinical signs, food and water consumption, behavioral changes, animals were weighed 2 times per week. […]
Observation and data collection: After tumor cells inoculation, the animals are checked daily for morbidity and mortality. […] Tumor volumes are measured every 3-4 days in two dimensions using an caliper, and the volume data are expressed in mm3 using the formula: V=(L×W×W)/2, where V is tumor volume, L is tumor length (the longest tumor dimension) and W is tumor width (the longest tumor dimension perpendicular to L). […]

[2] = test system: A431 (PTK7+, ATCC CRL-1555) cells; experiment: In vitro cytotoxicity, resazurin viability; type: cell-based; conditions: 5 days incubation
Experimental: A431 (PTK7+, ATCC CRL-1555) cells were plated in 96-well plates (10000 cells in 150 μL/well) in DMEM (ATCC) supplemented with 10% fetal bovine serum (FBS) (Invitrogen) and incubated overnight in a humidified atmosphere at 37° C. and 5% CO2. ADCs were added in triplo in a square root of 10 dilution series to obtain a final concentration ranging from 100 nM-0.01 nM. The cells were incubated for 5 days in a humidified atmosphere at 37° C. and 5% CO2. The culture medium was replaced by 0.01 mg/mL resazurin (Sigma Aldrich) in DMEM supplemented with 10% FBS (200 μL/well). After approximately 4 hours in a humidified atmosphere at 37° C. and 5% CO2 the fluorescence was detected with a fluorescence plate reader (Infinite® M1000 Tecan) at 560 nm excitation and 590 nm emission. The relative fluorescent units (RFU) were normalized to cell viability percentage by setting wells without cells at 0% viability and wells with untreated cells at 100% viability (see FIG. 9). IC50 values for ADCs on A431 cells were calculated by non-linear regression using Graphpad prism software and are shown in the table below: […]

[3] = test system: PTK7 expressing NCl—H446 tumor model; experiment: In vivo efficacy study, NCl—H446 xenograft (Example 30); parameters: species or system BALB/c nude mice; conditions: single IV dose; cofetuzumab-3 2.59, 5.18, 10.36 mg/kg; cofetuzumab-5b 2.59, 5.18 mg/kg; cofetuzumab-Aur0101 2.33 mg/kg; up to t=44 days
Experimental: as §1
BALB/c nude mice (female) of 7-9 weeks old received a subcutaneous injection in the right front flank region with 5×10^6 tumor cells in 0.1 ml of PBS mixed with Matrigel (1:1) for tumor development. When tumors reached an average size of 100-200 mm^3, randomization was performed into 10 groups of 8 mice and treatment began. Randomization will be performed based on “Matched distribution” method (Study Director™ Software, version 3.1.399.19). The date of randomization will be denoted as day 0.
as §2
Observation and data collection. […] Tumor volumes are measured every 3-4 days in two dimensions using an caliper, and the volume data are expressed in mm3 using the formula: V=(L×W×W)/2, where V is tumor volume, L is tumor length (the longest tumor dimension) and W is tumor width (the longest tumor dimension perpendicular to L). […]

[4] = Stability of ADCs in mice plasma (DAR by RP-UPLC); type: in vitro ADME
Experimental: (§3) General procedure for analytical RP-UPLC (DTT treated samples): Prior to RP-UPLC analysis, IgG (10 μL, 1 mg/mL in PBS pH 7.4) was added to 12.5 mM DTT, 100 mM TrisHCl pH 8.0 (40 μL) and incubated for 15 minutes at 37° C. The reaction was quenched by adding 49% acetonitrile, 49% water, 2% formic acid (50 μL). RP-UPLC analysis was performed on a Waters Acquity UPLC-SQD. The sample (5 μL) was injected with 0.4 mL/min onto Bioresolve RP mAb 2.1*150 mm 2.7 μm (Waters) with a column temperature of 70° C. A linear gradient was applied in 9 minutes from 30 to 54% acetonitrile in 0.1% TFA and water. Absorbance of eluted peaks was measured at 215 nm followed by automated integration (MassLynx, Waters) to determine reaction conversion.
(§4) Stability of ADCs in mice and human plasma was tested. Prior to the assay, the plasma was depleted from all IgG using CaptivA® Protein A agarose (1 mL agarose/mL serum). ADCs were added to the depleted human/mouse serum to a final concentration of 0.1 mg/mL followed by incubation at 37° C. At each time point, 0.5 mL was snap frozen and stored at −80° C. until further analysis. To isolate the ADCs after incubation, 20 μl CaptivA® Protein A agarose resin was added to the samples and incubated for 1 hour at room temperature. The resin was washed three times with PBS and subsequently 0.1 M Glycine-HCl pH 2.7 (0.4 mL) was added to elute the ADCs. After elution, the samples were immediately neutralized with 1.0 M Tris pH 8.0 (0.1 mL). The samples were spin-filtered against PBS for three times using Amicon Ultra spin-filter 0.5 mL MWCO 10 kDa (Merck Millipore) and the volume was reduced to 40 μL, yielding a final ADC concentration of approximately 1 mg/mL. Samples were analyzed on RP-UPLC (DTT reduced) to determine the DAR, tables below.

[5] = Stability of ADCs in human plasma (DAR by RP-UPLC); type: in vitro ADME
Experimental: as §3, §4

[6] = human plasma, 0.1 mg/mL, 37° C.

## O=C(c1cc(Cc2n[nH]c(=O)c3ccccc23)ccc1F)N1CCN(C(=O)C2CC2)CC1 [Olaparib]
[1]
  in vivo efficacy (tumor volume over time), single treatment: no significant effect

## B12-3: B12(6-N3-GalNAc)2 conjugated with BCN—HS-PEG2-HS-(va-PAB-Ex)2 3; negative / isotype control ADC [reference compound]
[2]
  IC50: > 100 nM

## cofetuzumab-5b: cofetuzumab(6-N3-GalNAc)2 conjugated with BCN—HS-vc-PABC-calicheamicin 5b; average DAR 1.93
[3]
  in vivo efficacy (tumor volume over time): tumor growth delay
[2]
  IC50: 0.1 nM

## cofetuzumab-Aur0101: TCEP-reduced cofetuzumab conjugated with Auristatin0101; average DAR 4.3; conventional comparator ADC [reference compound]
[3]
  in vivo efficacy (tumor volume over time): only marginal tumor growth delay
[4]; mice plasma table, direct measurement (not through isolation from plasma with protA agarose resin)
  DAR t = 0: 4.21*
[4]; mice plasma, 0.1 mg/mL, 37° C.
  DAR t = 1: 3.64
  DAR t = 3: 3.26
  DAR t = 7: 2.46
  DAR t = 7, % of t = 0: 58%
[5]; human plasma table, direct measurement (not through isolation from plasma with protA agarose resin)
  DAR t = 0: 4.21*
[5]; [6]
  DAR t = 3: 3.61
  DAR t = 14: 2.67
  DAR t = 14, % of t = 0: 63%
